Reference: paper PMC7603204
Residue numbers refer to the chain shown, from its start. In names and notes the source's numbering stands.

B1: E. coli AlaRS (Escherichia coli K-12; C666A/R561C) (protein)
chain: SKSTAEIRQAFLDFFHSKGHQVVASSSLVPHNDPTLLFTNAGMNQFKDVFLGLDKRNYSRATTSQRCVRAGGKHNDLENVGYTARHHTFFEMLGNFSFGDYFKHDAIQFAWELLTSEKWFALPKERLWVTVYESDDEAYEIWEKEVGIPRERIIRIGDNKGAPYASDNFWQMGDTGPCGPCTEIFYDHGDHIWGGPPGSPEEDGDRYIEIWNIVFMQFNRQADGTMEPLPKPSVDTGMGLERIAAVLQHVNSNYDIDLFRTLIQAVAKVTGATDLSNKSLRVIADHIRSCAFLIADGVMPSNENRGYVLRRIIRRAVRHGNMLGAKETFFYKLVGPLIDVMGSAGEDLKRQQAQVEQVLKTEEEQFARTLERGLALLDEELAKLSGDTLDGETAFRLYDTYGFPVDLTADVCRERNIKVDEAGFEAAMEEQRRRAREASGFGADYNAMIRVDSASEFKGYDHLELNGKVTALFVDGKAVDAINAGQEAVVVLDQTPFYAESGGQVGDKGELKGANFSFAVEDTQKYGQAIGHIGKLAAGSLKVGDAVQADVDEARRARICLNHSATHLMHAALRQVLGTHVSQKGSLVNDKVLRFDFSHNEAMKPEEIRAVEDLVNTQIRRNLPIETNIMDLEAAKAKGAMALFGEKYDERVRVLSMGDFSTELAGGTHASRTGDIGLFRIISESGTAAGVRRIEAVTGEGAIATVHADSDRLSEVAHLLKGDSNNLADKVRSVLERTRQLEKELQQLKEQAAAQESANLSSKAIDVNGVKLLVSELSGVEPKMLRTMVDDLKNQLGSTIIVLATVVEGKVSLIAGVSKDVTDRVKAGELIGMVAQQVGGKGGGRPDMAQAGGTDAAALPAALASVKGWVSAKLQ
B2: E. coli AlaRS (Escherichia coli K-12; R561S) (protein)
chain: B1 chain with C560S, A665C
B3: E. coli AlaRS (Escherichia coli K-12; R561C) (protein)
chain: B1 chain with A665C
B4: E. coli AlaRS (Escherichia coli K-12; C666A/R561S) (protein)
chain: B1 chain with C560S
B5: E. coli AlaRS (Escherichia coli K-12; D551Y) (protein)
chain: B1 chain with D550Y, C560R, A665C
B6: E. coli AlaRS (Escherichia coli K-12; C666A) (protein)
chain: B1 chain with C560R
B7: E. coli AlaRS (Escherichia coli K-12) (protein)
chain: B1 chain with C560R, A665C
B8: E. coli AlaRS (Escherichia coli K-12; C666A/D551Y) (protein)
chain: B1 chain with D550Y, C560R

Substrate: C[C@H](N)C(=O)O
Assay: purified protein
Details: 2 mM ATP, 2 mM PPi, 10 mM MgCl2, 30 mM KCl, 2 mM NaF, pH 7.2, 37 °C, amino acid activation

Protein | Km | kcat | kcat/Km
B1 | 190 ± 30 µM | 13.7 s⁻¹ | 71500 M⁻¹ s⁻¹
B2 | 180 ± 15 µM | 20.3 s⁻¹ | 112000 M⁻¹ s⁻¹
B3 | 203 ± 68 µM | 21.8 s⁻¹ | 107000 M⁻¹ s⁻¹
B4 | 177 ± 37 µM | 13.2 s⁻¹ | 74300 M⁻¹ s⁻¹
B5 | 260 ± 76 µM | 11.9 s⁻¹ | 46000 M⁻¹ s⁻¹
B6 | 263 ± 115 µM | 16.8 s⁻¹ | 63800 M⁻¹ s⁻¹
B7 | 320 ± 150 µM | 20.8 s⁻¹ | 65200 M⁻¹ s⁻¹
B8 | 217 ± 100 µM | 18.3 s⁻¹ | 84300 M⁻¹ s⁻¹
